The record followed here is patent publication US20220185901A1 (Bayer, published 2022).

Changes are numbered by the printed parent chain.

In general, Kd refers to the equilibrium constant for the complex coming apart. Usually EC50 stands for the concentration needed to bring the measured effect to its halfway point. The low end stands for an effect from little substance, the high end for a need for much substance.

Assay [1] concerns the target T1, murine ALK-1-Fc (TPP-11724) (murine).
T1 construct: also called mouse ALK-1
Nature of the assay: SPR, Biacore T200, antigen amine-coupled to the chip, antibody injected at 1.56-200 nM, 1:1 Langmuir fit, 25 C. On the procedure:
(§1) SPR experiments for quantitative binding analyses were performed using a Biacore T200 instrument (GE Healthcare Biacore, Inc.) equipped with Series S Sensor Chips CMS (GE Healthcare Biacore, Inc.). Binding assays were carried out at 25° C. with assay buffer HBS-EP+ (10 mM HEPES pH 7.4, 150 mM NaCl, 3 mM EDTA, 0.05% Surfactant P20). Antigens were covalently immobilized to the chip surface via amine coupling chemistry. The same proteins that had previously been used to isolate the antibodies of the invention during panning and screening [murine ALK-1-Fc SEQ ID NO: 114, human ALK-1-Fc SEQ ID NO: 116, as well as BMPR-2-Fc SEQ ID NO: 115 (human and murine extracellular are identical)] were used here as […] to determine KD values. Reagents for amine coupling (1-ethyl-3-(3-dimethylaminopropyl) carbodiimide hydrochloride (EDC), N-hydroxysuccinimide (NHS), ethanolamine-HCl pH 8.5) were used from the Amine Coupling Kit (GE Healthcare, product code BR-1000-50). The sensor chip surface was activated with a freshly prepared solution of 0.2 M EDC and 0.05 M NHS passed over the chip surface for 420 seconds at a flow rate of 10 μl/min, followed by an injection of antigen (dissolved to 0.5 μg/ml in immobilization buffer, 10 mM sodium acetate pH 5.0) with a target level of 50 RU. Excess of activated groups were blocked with a 1 molar solution of ethanolamine injected at a flow rate of 10 μl/min for 420 seconds.
(§2) The sensor surface was regenerated for 20 seconds with regeneration solution (glycine-HCl pH 1.5) after each assay cycle consisting of a single analyte injection.
(§3) Obtained sensorgrams were double-referenced, (reference cell correction followed by buffer sample subtraction). KD values were calculated based on the ratio of dissociation (kd) and association (kₐ) rate constants which were obtained by globally fitting sensorgrams with a first order 1:1 Langmuir binding model, implemented in the Biacore Evaluation Software Package (Biacore T200 Evaluation Software Version 2.0, GE Healthcare Biacore, Inc.).
Background: SPR reads the build-up and loss of mass on a sensor chip optically.

Assay [2] addresses T2, human ALK-1-Fc (TPP-11726) (human).
T2 construct: Used for panning, screening and SPR; also called hALK-1-Fc
Described as above. Here is the method: as §1, §2, §3

Assay [3] deals with ALK-1/BMPR-2 receptor pair on PathHunter U2OS ALK-1/BMPR-2 dimerization cells (DiscoverX 93-0962C3) (UniProt P37023 22-503; Q13873 27-1038). Nature of the assay: cell-based or functional assay.
Assay [4] deals with T2, human ALK-1-Fc (TPP-11726). Description: ELISA: human ALK-1-Fc coated at 2 µg/ml, TPP-14696 titrated, detected with anti-human IgG2 (Fc specific) then anti-mouse IgG-HRP; readout Relative Fluorescence Units. Here is the method: (§4) Antigens human ALK-1-Fc and human ALK-2-Fc were coated at 2 μg/ml and binding of TPP-14696 and TPP-14719 was detected by anti-human IgG2 (Fc specific) antibody (Sigma 19513) followed by anti-mouse IgG (whole molecule)—HRP (Sigma A9044, 1:40000).
(§5) In order to determine the selectivity for the ALK-1/BMPR-2 receptor complex compared to the ALK-2/BMPR-2 receptor, the specificity of the agonistic antibodies has been evaluated by ELISA (FIG. 9). The antigens human ALK-1-Fc and human ALK-2-Fc were coated at 2 μg/ml and binding of TPP-14696 and TPP-14719 was detected by anti-human IgG2 (Fc specific) antibody (Sigma 19513) followed by anti-mouse IgG (whole molecule)—HRP (Sigma A9044, 1:40000).
In general terms: ELISA stands for enzyme-linked immunosorbent assay.

Assay [5] concerns the target T3, hActivin RIA/ALK-2 Fc Chimera (TPP-17233) (human, UniProt Q04771 23-123).
T3 construct: also called human ALK-2-Fc
T3 sequence: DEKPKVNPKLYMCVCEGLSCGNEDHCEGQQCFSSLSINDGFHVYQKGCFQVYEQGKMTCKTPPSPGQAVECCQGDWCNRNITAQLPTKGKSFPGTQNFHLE
Nature of the assay: ELISA: human ALK-2-Fc coated at 2 µg/ml, TPP-14696 titrated, detected with anti-human IgG2 (Fc specific) then anti-mouse IgG-HRP; readout Relative Fluorescence Units. Here is the method:
as §4, §5

For assay [6], the target named is T4, BMPR-2-FcHis6 (TPP-11725) (human).
T4 construct: also called human BMPR-2
Nature of the assay: SPR, Biacore T200, antigen amine-coupled to the chip, antibody injected at 1.56-200 nM, 1:1 Langmuir fit, 25 C. On the procedure:
as §1, §2, §3

T2 sequence (chain, as listed by the source limits assumed): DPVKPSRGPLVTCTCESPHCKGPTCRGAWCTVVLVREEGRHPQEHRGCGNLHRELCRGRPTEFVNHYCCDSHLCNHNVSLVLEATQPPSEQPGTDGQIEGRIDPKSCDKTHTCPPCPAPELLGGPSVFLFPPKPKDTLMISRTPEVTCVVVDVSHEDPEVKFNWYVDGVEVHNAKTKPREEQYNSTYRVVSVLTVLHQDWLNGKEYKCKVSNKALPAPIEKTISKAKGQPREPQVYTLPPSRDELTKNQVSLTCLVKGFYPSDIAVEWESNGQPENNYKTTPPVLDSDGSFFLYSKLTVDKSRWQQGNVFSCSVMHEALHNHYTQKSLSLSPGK
T1 sequence (chain, as listed by the source limits assumed): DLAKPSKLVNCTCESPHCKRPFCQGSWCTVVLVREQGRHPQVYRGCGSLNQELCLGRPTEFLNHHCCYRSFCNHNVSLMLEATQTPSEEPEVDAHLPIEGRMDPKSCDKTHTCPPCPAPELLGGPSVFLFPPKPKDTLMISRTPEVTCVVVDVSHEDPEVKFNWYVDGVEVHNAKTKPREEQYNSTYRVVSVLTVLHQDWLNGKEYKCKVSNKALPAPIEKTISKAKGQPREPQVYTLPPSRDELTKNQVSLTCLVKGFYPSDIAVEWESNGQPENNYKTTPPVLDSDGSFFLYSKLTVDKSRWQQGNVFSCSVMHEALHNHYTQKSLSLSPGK
T4 sequence (chain, as listed by the source limits assumed): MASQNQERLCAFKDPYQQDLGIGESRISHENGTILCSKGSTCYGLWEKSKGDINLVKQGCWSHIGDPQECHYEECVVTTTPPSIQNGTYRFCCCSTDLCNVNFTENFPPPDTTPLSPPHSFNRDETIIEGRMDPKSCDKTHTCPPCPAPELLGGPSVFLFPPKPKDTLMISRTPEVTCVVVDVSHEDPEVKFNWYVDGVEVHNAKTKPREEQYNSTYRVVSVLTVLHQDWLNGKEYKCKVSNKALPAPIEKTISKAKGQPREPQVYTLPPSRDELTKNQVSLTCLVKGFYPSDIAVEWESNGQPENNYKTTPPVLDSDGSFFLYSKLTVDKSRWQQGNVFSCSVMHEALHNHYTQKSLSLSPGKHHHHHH
ALK-1/BMPR-2 receptor pair on PathHunter U2OS ALK-1/BMPR-2 dimerization cells (DiscoverX 93-0962C3), sequence (P37023 22-503, chain 1 of 2): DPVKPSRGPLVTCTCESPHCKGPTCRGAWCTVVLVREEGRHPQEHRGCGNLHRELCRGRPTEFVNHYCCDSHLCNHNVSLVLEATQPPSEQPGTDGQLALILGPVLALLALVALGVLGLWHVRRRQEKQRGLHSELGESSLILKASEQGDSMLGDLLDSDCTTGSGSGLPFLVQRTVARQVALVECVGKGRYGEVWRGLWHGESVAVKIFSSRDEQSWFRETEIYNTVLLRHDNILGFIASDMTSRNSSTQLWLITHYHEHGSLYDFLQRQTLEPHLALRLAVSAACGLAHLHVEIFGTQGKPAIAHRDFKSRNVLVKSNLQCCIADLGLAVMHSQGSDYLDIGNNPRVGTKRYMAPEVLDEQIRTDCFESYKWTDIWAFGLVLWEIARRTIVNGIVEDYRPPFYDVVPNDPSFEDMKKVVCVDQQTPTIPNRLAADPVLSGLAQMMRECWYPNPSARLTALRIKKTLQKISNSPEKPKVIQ
ALK-1/BMPR-2 receptor pair on PathHunter U2OS ALK-1/BMPR-2 dimerization cells (DiscoverX 93-0962C3), sequence (Q13873 27-1038, chain 2 of 2): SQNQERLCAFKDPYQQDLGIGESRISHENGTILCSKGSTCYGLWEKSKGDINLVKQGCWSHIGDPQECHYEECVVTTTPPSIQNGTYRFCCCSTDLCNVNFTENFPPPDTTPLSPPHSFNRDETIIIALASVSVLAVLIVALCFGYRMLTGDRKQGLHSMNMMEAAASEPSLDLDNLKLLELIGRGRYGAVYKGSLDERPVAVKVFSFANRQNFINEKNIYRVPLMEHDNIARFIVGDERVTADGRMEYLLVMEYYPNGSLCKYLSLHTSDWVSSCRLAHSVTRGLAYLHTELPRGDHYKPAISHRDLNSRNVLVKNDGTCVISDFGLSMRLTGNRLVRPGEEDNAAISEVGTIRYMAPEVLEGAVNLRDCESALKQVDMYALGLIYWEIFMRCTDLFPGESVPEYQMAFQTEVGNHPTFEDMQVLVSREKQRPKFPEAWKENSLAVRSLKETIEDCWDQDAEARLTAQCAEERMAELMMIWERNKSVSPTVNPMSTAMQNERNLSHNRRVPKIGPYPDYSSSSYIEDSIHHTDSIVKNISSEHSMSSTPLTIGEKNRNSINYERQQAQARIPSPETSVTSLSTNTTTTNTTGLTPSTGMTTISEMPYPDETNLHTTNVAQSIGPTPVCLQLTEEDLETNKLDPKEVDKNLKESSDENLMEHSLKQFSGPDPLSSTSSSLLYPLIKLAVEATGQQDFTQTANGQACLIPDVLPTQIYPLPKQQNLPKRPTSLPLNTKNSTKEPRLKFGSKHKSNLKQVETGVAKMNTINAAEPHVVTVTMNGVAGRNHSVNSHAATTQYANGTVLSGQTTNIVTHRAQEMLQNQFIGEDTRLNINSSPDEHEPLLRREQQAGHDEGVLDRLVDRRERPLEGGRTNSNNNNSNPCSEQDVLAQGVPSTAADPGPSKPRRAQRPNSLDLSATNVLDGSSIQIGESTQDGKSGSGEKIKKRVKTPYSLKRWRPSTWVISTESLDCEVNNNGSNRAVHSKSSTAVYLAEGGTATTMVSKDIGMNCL

B1: TPP-13660 (484A-M232-A14-scFv-Fc-hIgG2) (Fc fusion)
chain: EVQLLESGGGLVQPGGSLRLSCAASGFTFSSYAMSWVRQAPGKGLEWVANINQDGSEKNYVDSMRGRFTISRDNSKNTLYLQMNSLRAEDTAVYYCAREFDYWGQGTLVTVTSSGGGGSGGGGSGGGGSQSVLAQPPSASGTPGQRVTISCSGSSSNIGSNYVYWYQQLPGTAPKLLIYGNNKRPSGVPDRFSGSKSGTSASLAISGLRSEDEADYYCAAWDDSLNGRVFGGGTKLTVLGGGGSGGGGSGGGGSGVECPPCPAPPVAGPSVFLFPPKPKDTLMISRTPEVTCVVVDVSHEDPEVQFNWYVDGVEVHNAKTKPREEQFNSTFRVVSVLTVVHQDWLNGKEYKCKVSNKGLPAPIEKTISKTKGQPREPQVYTLPPSREEMTKNQVSLTCLVKGFYPSDIAVEWESNGQPENNYKTTPPMLDSDGSFFLYSKLTVDKSRWQQGNVFSCSVMHEALHNHYTQKSLSLSPG
notes: Monospecific antibody (MsAB) against ALK-1; the construct name says scFv-Fc-hIgG2; not shown: human IgG2 Fc (and any linker), implied by the construct name scFv-Fc-hIgG2
As for B1, the equilibrium dissociation constant (Kd) in assay [1] came out at 25 nM; in assay [2] it was 8.5 nM.

B2: TPP-14696 (13654-13667-scFv-kih-IgG2_Fc) (bispecific antibody)
chain 1: EVQLLESGGGLVQPGGSLRLSCAASGFTFSIYAMSWVRQAPGKGLEWVSAISGSGGSTYYADSVKGRFTISRDNSKNTLYLQMNSLRAEDTAVYYCARDFDYWGQGTLVTVTSSGGGGSGGGGSGGGGSQSVLTQPPSASGTPGQRVTISCSGSSSNIGSNYVYWYQQLPGTAPKLLIYGNINRPSGVPDRFSGSKSGTSASLAISGLRSEDEADYYCAAWDDSLNGRVFGGGTKLTVLGGGGSGGGGSGGGGSGVECPPCPAPPVAGPSVFLFPPKPKDTLMISRTPEVTCVVVDVSHEDPEVQFNWYVDGVEVHNAKTKPREEQFNSTFRVVSVLTVVHQDWLNGKEYKCKVSNKGLPAPIEKTISKTKGQPREPQVYTLPPCREEMTKNQVSLWCLVKGFYPSDIAVEWESNGQPENNYKTTPPMLDSDGSFFLYSKLTVDKSRWQQGNVFSCSVMHEALHNHYTQKSLSLSPG
chain 2: EVQLLESGGGLVQPGGSLRLSCAASGFTFSNAWMNWVRQAPGKGLEWVSSISSSSSYIYYADSVKGRFTISRDNSKNTLYLQMNSLRAEDTAVYYCARAVAAGGMFWGLDQWGQGTLVTVTSSGGGGSGGGGSGGGGSQSVLTQPPSASGTPGQRVTISCSGSRSNIGSNSVHWYQQLPGTAPKLLIYGNSNRPSGVPDRFSGSKSGTSASLAISGLRSEDEADYYCQSYDSSLNDHVVFGGGTKLTVLGGGGSGGGGSGGGGSGVECPPCPAPPVAGPSVFLFPPKPKDTLMISRTPEVTCVVVDVSHEDPEVQFNWYVDGVEVHNAKTKPREEQFNSTFRVVSVLTVVHQDWLNGKEYKCKVSNKGLPAPIEKTISKTKGQPREPQVCTLPPSREEMTKNQVSLSCAVKGFYPSDIAVEWESNGQPENNYKTTPPMLDSDGSFFLVSKLTVDKSRWQQGNVFSCSVMHEALHNHYTQKSLSLSPG
notes: scFv-Fc (kih) heterodimer with IgG2 Fc; also called TPP-14669 (as printed in some places); BsAB TPP-14696
Take B2: the “Agonistic activity in PathHunter U2OS cells EC50” value in assay [3] stood at 6.3 nM. Further, the 50% effective concentration (EC50) in assay [4] was 1.01 nM. Further, the binding result in assay [5] is on record as “no binding”.

B3: TPP-13667 (484A-M198-J22-scFv-Fc-hIgG2) (Fc fusion)
chain: B2 chain 2 with C390Y, S407T, A409L, V448Y
notes: Monospecific antibody (MsAB) against BMPR-2; the first row says hIgG2; not shown: human IgG2 Fc (and any linker), implied by the construct name scFv-Fc-hIgG2
As for B3, binding in assay [6] was put at a Kd of 8.8 nM.

B4: TPP-13654 (484A-M233-M07-scFv-Fc-hIgG2) (Fc fusion)
chain: B2 chain 1 with C385S, W397T
notes: as for B1
Turning to B4, the Kd in assay [1] came to 25 nM; in assay [2] it was 8.6 nM.

B5: TPP-13469 (484A-M010-C06-scFv-Fc-hIgG2) (Fc fusion)
chain: EVQLLESGGGLVQPGGSLRLSCAASGFTFSDYYMTWIRQAPGKGLEWVSSISGGSTYYADSRKGRFTISRDNSENTLYLQMNSLRAEDTAVYYCARDFGVAGWFGQYGMDVWGQGTLVTVSSGGGGSGGGGSGGGGSQSVLTQPPSASGTPGQRVTISCTGSSSNIGAGYDVHWYQQLPGTAPKLLIYRSNQRPSGVPDRFSGSKSGTSASLAISGLRSEDEADYYCSSYAGNYNLVFGGGTKLTVLGGGGSGGGGSGGGGSGVECPPCPAPPVAGPSVFLFPPKPKDTLMISRTPEVTCVVVDVSHEDPEVQFNWYVDGVEVHNAKTKPREEQFNSTFRVVSVLTVVHQDWLNGKEYKCKVSNKGLPAPIEKTISKTKGQPREPQVYTLPPSREEMTKNQVSLTCLVKGFYPSDIAVEWESNGQPENNYKTTPPMLDSDGSFFLYSKLTVDKSRWQQGNVFSCSVMHEALHNHYTQKSLSLSPG
notes: Monospecific antibody (MsAB) against BMPR-2; the construct name says scFv-Fc-hIgG2; not shown: human IgG2 Fc (and any linker), implied by the construct name scFv-Fc-hIgG2
Turning to B5, in assay [6], the Kd is 6.2 nM.
